Experimental data published in patent publication US5130300A, “Method for enhancing growth of mammary parenchyma” (Monsanto Company, priority 1987, dated 1992).

Key:
[1] = tested on: Quarter-Udders in Pregnant Holstein Heifers; assay: Intramammary infusion, milk production per udder side in first 30 days after parturition (Examples 23-24, 42-43); format: in vivo
Procedure: 18 pregnant Holstein heifers within their last 40-60 days of expected calving were housed in a free-stall facility, fed a ration of alfalfa hay and pelleted concentrate and administered 10 ml of an excipient (sterile sesame oil) into each quarter-udder by intramammary infusion through the steak canal every third day for the number of treatments shown below. The heifers in Groups 1 and 3 were treated no later than their fifth day before parturition; treatments of those in Groups 2 and 4 were continued into their last five days. Treatments containing a mitogenic substance were administered to both quarter-udders on one side of each animal. Excipient only was administered to both quarter-udders on the opposite side of that animal. All infusions were carried out with a Jorgensen laboratories infusion canula of the kind used in Examples 1-2. Each teat was sprayed with 70% ethanol and wiped dry prior to treatment, and dipped with an iodine solution following treatment. These animals were milked normally each a.m. and p.m. for the first 30 days after parturition, with milk production recorded separately for each quarter-udder. […] Shown in Table 21 are the milk production results obtained with the heifers of Group 3 in Examples 23-24. On average, milk production by the half-udders that had been treated in Group 4 of Examples 23-24 slightly exceeded (2%, p<0.4) that of their control half-udders.

[2] = tested on: Quarter-Udders in Pregnant Beef Cows; assay: Intramammary infusion of BST, quarter-udder weights and DNA (Examples 40-41); format: in vivo, cross-bred beef cows; conditions: for DNA, % Increase, (A-B)/B / DNA, Mean Increase (A-B) / Dry Fat-Free Weight, % Increase, (A-B)/B / Dry Fat-Free Weight, Mean Increase (A-B) / Dry Weight, % Increase, (A-B)/B / Dry Weight, Mean Increase (A-B) / Wet Weight, % Increase, (A-B)/B / Wet Weight, Mean Increase (A-B): B = excipient only
Procedure: 24 pregnant, non-lactating, cross-bred beef cows in their last 40-80 days of gestation were divided into 2 groups and tested for the effects of intramammary infusion using the procedures of Examples 3-6 except that (A) the volume of excipient in each infusion was 5 ml and (B) each treatment infusion contained a 1% zinc salt of an N-methionyl bovine somatotropin (BST) (Group 1-100 mg; Group 2-40 mg) prepared by expression of recombinant DNA and purified essentially as described in Example 1A of U.S. Patent Appln. No. 787,873 filed Oct. 16, 1985 based on European Patent Appln. No. 177,478 published Apr. 9, 1986, both incorporated here by reference. Results are in Tables 19-20.

[3] = tested on: Quarter-Udders in Pregnant Beef Cattle; assay: Intramammary infusion of ovine prolactin, quarter-udder weights and DNA (Comparative Examples); format: in vivo, cross-bred beef cows
Procedure: 16 pregnant, non-lactating, cross-bred beef cows in their last 30-105 days of gestation were divided into 2 groups and tested for the effects of intramammary infusion using the procedures of Examples 25-28 except that instead of a prostaglandin, each treatment infusion contained either 2 mg (Group 1) or 10 mg (Group 2) of ovine prolactin obtained from Sigma Chemical Co., St. Louis, Mo. (Lot No. 26F-0076) in 10 ml of an emulsion of 0.9% saline containing 0.5% Tween-20 in sterile sesame oil containing 5% Arlacel A (3:2 oil: saline). Results are in Tables 22-23.

[4] = Group 1: total of 500 milligrams BST
[5] = Group 1: total of 500 milligrams BST (100 mg per infusion)
[6] = Group 2: total of 200 milligrams BST
[7] = Group 2: total of 200 milligrams BST (40 mg per infusion)
[8] = Group 1: total of 10 milligrams (2 mg per infusion)
[9] = Group 1: total of 10 milligrams, B = control mean
[10] = Group 2: total dose of 50 milligrams (10 mg per infusion)
[11] = Group 2: total dose of 50 milligrams, B = control mean

B1: BST: N-methionyl bovine somatotropin prepared by expression of recombinant DNA (protein, UniProt P01246 27-217, looked up)
Somatotropin: AFPAMSLSGLFANAVLRAQHLHQLAADTFKEFERTYIPEGQRYSIQNTQVAFCFSETIPAPTGKNEAQQKSDLELLRISLLLIQSWLGPLQFLSRVFTNSLVFGTSDRVYEKLKDLEEGILALMRELEDGTPRAGQILKQTYDKFDTNMRSDDALLKNYGLLSCFRKDLHKTETYLRVMKCRRFGEASCAF
modifications: N-terminal Met
notes: N-methionyl bovine somatotropin prepared by expression of recombinant DNA
- Average Milk Production, Treated Side (A) ([1]; BST 50 mg per infusion every third day, no later than fifth day before parturition (Group 3 per text), first 30 days after parturition): 10.9 kg/day
- Average Milk Production, % Increase, (A-B)/B ([1]; BST 50 mg per infusion, no later than fifth day before parturition (Group 3 per text), B = control side, excipient only): 11%
- Milk production of treated half-udders in excess of control half-udders ([1]; Group 4: BST 50 mg per infusion, treatments continued into last five days before parturition): 2%
- DNA, Avg. % Increase/Animal [2, 4]: 10.5%
- Dry Fat-Free Weight, Avg. % Increase/Animal [2, 4]: 7.9%
- Dry Weight, Avg. % Increase/Animal [2, 4]: 10.7%
- Wet Weight, Avg. % Increase/Animal [2, 4]: 9.8%
- DNA, Treatment Mean [2, 5]: 2185 mg
- Dry Fat-Free Weight, Treatment Mean [2, 5]: 146.7 g
- Dry Weight, Treatment Mean [2, 5]: 207.6 g
- Wet Weight, Treatment Mean [2, 5]: 790.1 g
- DNA, % Increase, (A-B)/B [2, 4]: 6.4%
- DNA, Mean Increase (A-B) [2, 4]: 131 mg
- Dry Fat-Free Weight, % Increase, (A-B)/B [2, 4]: 3.6%
- Dry Fat-Free Weight, Mean Increase (A-B) [2, 4]: 5.2 g
- Dry Weight, % Increase, (A-B)/B [2, 4]: 8.9%
- Dry Weight, Mean Increase (A-B) [2, 4]: 17.0 g
- Wet Weight, % Increase, (A-B)/B [2, 4]: 7.3%
- Wet Weight, Mean Increase (A-B) [2, 4]: 53.5 g
- DNA, Avg. % Increase/Animal [2, 6]: 15.8%
- Dry Fat-Free Weight, Avg. % Increase/Animal [2, 6]: 7.8%
- Dry Weight, Avg. % Increase/Animal [2, 6]: 10.7%
- Wet Weight, Avg. % Increase/Animal [2, 6]: 13.4%
- DNA, Treatment Mean [2, 7]: 1371 mg
- Dry Fat-Free Weight, Treatment Mean [2, 7]: 49.5 g
- Dry Weight, Treatment Mean [2, 7]: 96.4 g
- Wet Weight, Treatment Mean [2, 7]: 396.9 g
- DNA, % Increase, (A-B)/B [2, 6]: 5.5%
- DNA, Mean Increase (A-B) [2, 6]: 72 mg
- Dry Fat-Free Weight, % Increase, (A-B)/B [2, 6]: 10.5%
- Dry Fat-Free Weight, Mean Increase (A-B) [2, 6]: 4.7 g
- Dry Weight, % Increase, (A-B)/B [2, 6]: 13.3%
- Dry Weight, Mean Increase (A-B) [2, 6]: 11.3 g
- Wet Weight, % Increase, (A-B)/B [2, 6]: 14.9%
- Wet Weight, Mean Increase (A-B) [2, 6]: 51.5 g

B2: Ovine Prolactin: ovine prolactin from Sigma Chemical Co. (Lot No. 26F-0076), comparative example (protein, UniProt P01240 31-229, looked up)
Prolactin: TPVCPNGPGNCQVSLRDLFDRAVMVSHYIHNLSSEMFNEFDKRYAQGKGFITMALNSCHTSSLPTPEDKEQAQQTHHEVLMSLILGLLRSWNDPLYHLVTEVRGMKGVPDAILSRAIEIEEENKRLLEGMEMIFGQVIPGAKETEPYPVWSGLPSLQTKDEDARHSAFYNLLHCLRRDSSKIDTYLKLLNCRIIYNNNC
- DNA, Treatment Mean [3, 8]: 2526 mg
- Dry Fat-Free Weight, Treatment Mean [3, 8]: 137.8 g
- Dry Weight, Treatment Mean [3, 8]: 262.7 g
- Wet Weight, Treatment Mean [3, 8]: 895.3 g
- Dry Fat-Free Weight, % Increase, (A-B)/B [3, 9]: .88%
- Dry Fat-Free Weight, Mean Increase (A-B) [3, 9]: 1.2 g
- Dry Weight, % Increase, (A-B)/B [3, 9]: 1.0%
- Dry Weight, Mean Increase (A-B) [3, 9]: 4.8 g
- Wet Weight, % Increase, (A-B)/B [3, 9]: .6%
- Wet Weight, Mean Increase (A-B) [3, 9]: 5.4 g
- DNA, Treatment Mean [3, 10]: 3672 mg
- Dry Fat-Free Weight, Treatment Mean [3, 10]: 189.2 g
- Dry Weight, Treatment Mean [3, 10]: 343.4 g
- Wet Weight, Treatment Mean [3, 10]: 1487.1 g
- DNA, % Increase, (A-B)/B [3, 11]: 10.5%
- DNA, Mean Increase (A-B) [3, 11]: 350 mg
- Dry Fat-Free Weight, % Increase, (A-B)/B [3, 11]: 2.5%
- Dry Fat-Free Weight, Mean Increase (A-B) [3, 11]: 4.7 g
- Wet Weight, % Increase, (A-B)/B [3, 11]: 13.6%
- Wet Weight, Mean Increase (A-B) [3, 11]: 178.6 g
